Earlier results, collected in PMC10366146.

Target: VEGFR2 (Homo sapiens) (UniProt P35968)
UniProt P35968, sequence (P35968 20-1356): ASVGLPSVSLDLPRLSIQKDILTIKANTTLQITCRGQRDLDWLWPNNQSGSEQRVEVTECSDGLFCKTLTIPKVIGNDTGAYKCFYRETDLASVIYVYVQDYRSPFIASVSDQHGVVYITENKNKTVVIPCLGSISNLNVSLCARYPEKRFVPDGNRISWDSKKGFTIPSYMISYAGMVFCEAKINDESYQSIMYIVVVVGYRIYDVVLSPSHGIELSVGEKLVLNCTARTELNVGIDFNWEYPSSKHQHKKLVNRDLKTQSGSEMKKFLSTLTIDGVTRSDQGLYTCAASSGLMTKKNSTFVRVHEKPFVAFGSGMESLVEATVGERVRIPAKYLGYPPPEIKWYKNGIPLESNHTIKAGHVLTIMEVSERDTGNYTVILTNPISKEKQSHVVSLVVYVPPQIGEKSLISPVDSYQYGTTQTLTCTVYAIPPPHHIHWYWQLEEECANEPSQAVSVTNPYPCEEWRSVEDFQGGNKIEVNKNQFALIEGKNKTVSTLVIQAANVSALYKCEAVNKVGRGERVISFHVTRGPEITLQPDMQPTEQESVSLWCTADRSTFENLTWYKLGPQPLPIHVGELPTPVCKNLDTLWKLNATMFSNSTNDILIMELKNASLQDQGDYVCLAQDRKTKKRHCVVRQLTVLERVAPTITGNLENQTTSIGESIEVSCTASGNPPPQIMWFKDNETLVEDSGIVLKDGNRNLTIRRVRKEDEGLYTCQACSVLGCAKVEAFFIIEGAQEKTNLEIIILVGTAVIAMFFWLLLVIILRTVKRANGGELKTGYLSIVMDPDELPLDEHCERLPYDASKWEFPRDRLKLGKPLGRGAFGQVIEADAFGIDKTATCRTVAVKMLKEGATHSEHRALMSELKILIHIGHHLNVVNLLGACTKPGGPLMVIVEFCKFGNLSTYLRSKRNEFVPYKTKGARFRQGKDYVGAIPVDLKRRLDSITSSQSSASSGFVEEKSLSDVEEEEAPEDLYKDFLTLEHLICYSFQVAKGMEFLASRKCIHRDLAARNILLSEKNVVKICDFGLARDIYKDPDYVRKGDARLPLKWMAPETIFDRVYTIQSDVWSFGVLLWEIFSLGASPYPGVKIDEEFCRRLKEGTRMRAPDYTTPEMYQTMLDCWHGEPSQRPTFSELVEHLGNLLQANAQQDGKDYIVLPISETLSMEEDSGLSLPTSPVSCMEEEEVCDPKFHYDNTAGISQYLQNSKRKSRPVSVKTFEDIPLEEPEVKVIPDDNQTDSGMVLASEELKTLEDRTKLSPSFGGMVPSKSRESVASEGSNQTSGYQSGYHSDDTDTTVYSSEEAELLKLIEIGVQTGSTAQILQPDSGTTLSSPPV

Kd: 5.5 nM
Substance: VEGF121 VEGF121 (from UniProt P15692)
